PMC7082139, “Molecular Mechanisms of Phosphate Stress Activation of Pseudomonas aeruginosa Quorum Sensing Systems”

T1: PhoB (Pseudomonas aeruginosa PAO1, UniProt P23620 1-229)
T1 sequence: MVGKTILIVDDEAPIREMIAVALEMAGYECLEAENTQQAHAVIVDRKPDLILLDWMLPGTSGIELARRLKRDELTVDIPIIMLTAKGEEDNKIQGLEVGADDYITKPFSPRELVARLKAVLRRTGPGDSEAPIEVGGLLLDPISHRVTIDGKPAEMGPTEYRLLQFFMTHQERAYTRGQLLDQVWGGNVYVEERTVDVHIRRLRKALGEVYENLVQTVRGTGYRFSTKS

B1: P2+P3 (dsDNA)
DNA 1: GTTATAAAATTATGAAATTTGCATAAATTCTTCAGCTTCCTATTTGGAGGAAGTGAAG
DNA 2: CTTCACTTCCTCCAAATAGGAAGCTGAAGAATTTATGCAAATTTCATAATTTTATAAC
B2: lasI promoter (dsDNA)
DNA 1: TGCTCTGATCTTTTCGGACGTTTCTTCGAGCCTAGCAAGGGTCCGGGTTCACCGAAATCTATCTCATTTGCTAGTTATAAAATTATGAAATTTGCATAAATTCTTCAGCTTCCTATTTGGAGGAAGTGAAG
DNA 2: CTTCACTTCCTCCAAATAGGAAGCTGAAGAATTTATGCAAATTTCATAATTTTATAACTAGCAAATGAGATAGATTTCGGTGAACCCGGACCCTTGCTAGGCTCGAAGAAACGTCCGAAAAGATCAGAGCA
B3: P1 (upstream of pho box) (dsDNA)
DNA 1: TAGCAAGGGTCCGGGTTCACCGAAATCTATCTCATTTGCTA
DNA 2: TAGCAAATGAGATAGATTTCGGTGAACCCGGACCCTTGCTA
B4: P1+P2 (dsDNA)
DNA 1: TAGCAAGGGTCCGGGTTCACCGAAATCTATCTCATTTGCTAGTTATAAAATTATGAAAT
DNA 2: ATTTCATAATTTTATAACTAGCAAATGAGATAGATTTCGGTGAACCCGGACCCTTGCTA
B5: P3 (downstream of pho box) (dsDNA)
DNA 1: TTGCATAAATTCTTCAGCTTCCTATTTGGAGGAAGTGAAG
DNA 2: CTTCACTTCCTCCAAATAGGAAGCTGAAGAATTTATGCAA

How the values were obtained:
[1] = molecular target: T1, PhoB; assay: EMSA; conditions: protein: recombinant; tags: C-terminal His (pET-28b, NcoI-XhoI); chain copies: 2; label: biotin 3'-end; blunt
[2] = molecular target: RsaL (Pseudomonas aeruginosa PAO1, UniProt Q9X7H4 1-80); assay: EMSA; RsaL-specific shift; displaced by increasing PhoB (competes at 3 uM); conditions: protein: recombinant; tags: C-terminal His (pET-28b); chain copies: 2; label: biotin 3'-end; blunt
[3] = molecular target: PhoB(D54A) (Pseudomonas aeruginosa PAO1, UniProt P23620 1-229, D54A); assay: EMSA; conditions: protein: recombinant; tags: C-terminal His (pET-28b); chain copies: 2; label: biotin 3'-end; blunt

Binder | binding result [1] | binding result [2] | binding result [3]
B1 | binds |  | 
B2 | binds | binds | binds
B3 | no binding |  | 
B4 | binds |  | 
B5 | no binding |  | 
